Data: US20250257126A1 (CAMBRIDGE ENTERPRISE, published 2025)
Values belong to the binder of their own block, whether it stands above or below them.

What was measured:
[1] = biological target: T1, human LGR5-eGFP transgene (human, UniProt O75473 22-907); test: western blot of HEK293T lysates expressing the human LGR family transgenes
T1 construct: Tested on live or fixed cells and as cell lysates on western blots; also called hLGR5-eGFP; LGR5-GFP
T1 sequence: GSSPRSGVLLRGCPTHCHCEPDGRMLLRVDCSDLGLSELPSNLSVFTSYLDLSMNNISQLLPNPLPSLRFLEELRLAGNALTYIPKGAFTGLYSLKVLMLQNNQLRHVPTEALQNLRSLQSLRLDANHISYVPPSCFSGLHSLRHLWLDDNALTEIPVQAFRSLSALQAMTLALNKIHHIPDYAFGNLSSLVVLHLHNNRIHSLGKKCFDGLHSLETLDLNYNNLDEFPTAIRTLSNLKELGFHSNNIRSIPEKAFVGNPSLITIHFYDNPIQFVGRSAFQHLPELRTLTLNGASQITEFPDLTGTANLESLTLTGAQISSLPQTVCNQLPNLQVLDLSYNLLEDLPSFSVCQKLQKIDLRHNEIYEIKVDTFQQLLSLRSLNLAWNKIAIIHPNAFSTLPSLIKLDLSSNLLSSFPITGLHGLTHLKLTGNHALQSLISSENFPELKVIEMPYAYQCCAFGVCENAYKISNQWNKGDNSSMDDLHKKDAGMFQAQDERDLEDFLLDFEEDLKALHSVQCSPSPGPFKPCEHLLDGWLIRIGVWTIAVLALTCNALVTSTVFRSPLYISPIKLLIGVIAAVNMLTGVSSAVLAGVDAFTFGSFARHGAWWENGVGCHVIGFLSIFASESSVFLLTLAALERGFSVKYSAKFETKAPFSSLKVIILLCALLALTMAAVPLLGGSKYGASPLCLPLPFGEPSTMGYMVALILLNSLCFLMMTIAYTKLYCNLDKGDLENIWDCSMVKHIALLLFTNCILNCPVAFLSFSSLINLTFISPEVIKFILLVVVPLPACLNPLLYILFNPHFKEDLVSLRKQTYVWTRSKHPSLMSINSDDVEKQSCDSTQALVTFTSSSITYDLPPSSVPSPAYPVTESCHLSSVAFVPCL

[2] = biological target: T2, endogenous human LGR5 of cancer cell lines (human, UniProt O75473 22-907); test: flow cytometry of LoVo and NALM6 cells after 60 minutes with fluorescent antibodies, α-HER2 against α-LGR5
T2 construct: Untagged LGR5 as expressed by human LoVo, NALM6, REH cells and CRC organoids; also called LGR5 on LoVo cells; LGR5 on NALM6 cells
T2 sequence: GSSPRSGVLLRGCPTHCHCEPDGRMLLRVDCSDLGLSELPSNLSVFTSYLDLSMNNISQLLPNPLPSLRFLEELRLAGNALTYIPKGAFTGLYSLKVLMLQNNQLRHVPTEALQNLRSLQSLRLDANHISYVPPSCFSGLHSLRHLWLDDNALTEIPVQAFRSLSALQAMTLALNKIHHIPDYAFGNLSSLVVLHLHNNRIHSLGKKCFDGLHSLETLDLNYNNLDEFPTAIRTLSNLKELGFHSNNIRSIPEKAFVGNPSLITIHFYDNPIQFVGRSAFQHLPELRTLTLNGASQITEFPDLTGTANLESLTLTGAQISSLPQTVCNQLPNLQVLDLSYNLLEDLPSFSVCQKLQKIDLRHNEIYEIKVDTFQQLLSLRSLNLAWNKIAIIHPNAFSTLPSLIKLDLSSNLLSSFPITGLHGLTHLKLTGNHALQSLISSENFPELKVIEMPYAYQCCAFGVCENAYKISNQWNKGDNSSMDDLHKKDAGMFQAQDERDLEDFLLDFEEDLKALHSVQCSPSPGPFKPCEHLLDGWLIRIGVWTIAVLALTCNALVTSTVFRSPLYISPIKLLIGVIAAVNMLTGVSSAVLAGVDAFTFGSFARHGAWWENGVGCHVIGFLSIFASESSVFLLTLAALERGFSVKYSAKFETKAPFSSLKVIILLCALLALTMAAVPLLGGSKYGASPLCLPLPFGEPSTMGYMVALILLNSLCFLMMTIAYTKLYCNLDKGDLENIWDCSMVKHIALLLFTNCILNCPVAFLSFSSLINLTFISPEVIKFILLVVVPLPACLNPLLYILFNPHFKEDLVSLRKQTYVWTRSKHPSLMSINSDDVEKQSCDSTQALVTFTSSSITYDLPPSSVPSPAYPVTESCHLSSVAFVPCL

[3] = biological target: T1, human LGR5-eGFP transgene; test: western blot of lysates of HEK293T cells expressing mLGR5, hLGR5 or cynoLGR5 transgenes, probed with hybridoma clone 1
murine LGR5 transgene [4] = biological target: T3, murine LGR5 transgene (mouse, UniProt Q9Z1P4 22-907); test: as above
T3 construct: whole, on cells; Overexpressed in HEK293T cells with N-terminal HA tag, V2 receptor tail and eGFP; also tested as lysate; also called mLGR5; mLGR5-eGFP
T3 sequence (looked up): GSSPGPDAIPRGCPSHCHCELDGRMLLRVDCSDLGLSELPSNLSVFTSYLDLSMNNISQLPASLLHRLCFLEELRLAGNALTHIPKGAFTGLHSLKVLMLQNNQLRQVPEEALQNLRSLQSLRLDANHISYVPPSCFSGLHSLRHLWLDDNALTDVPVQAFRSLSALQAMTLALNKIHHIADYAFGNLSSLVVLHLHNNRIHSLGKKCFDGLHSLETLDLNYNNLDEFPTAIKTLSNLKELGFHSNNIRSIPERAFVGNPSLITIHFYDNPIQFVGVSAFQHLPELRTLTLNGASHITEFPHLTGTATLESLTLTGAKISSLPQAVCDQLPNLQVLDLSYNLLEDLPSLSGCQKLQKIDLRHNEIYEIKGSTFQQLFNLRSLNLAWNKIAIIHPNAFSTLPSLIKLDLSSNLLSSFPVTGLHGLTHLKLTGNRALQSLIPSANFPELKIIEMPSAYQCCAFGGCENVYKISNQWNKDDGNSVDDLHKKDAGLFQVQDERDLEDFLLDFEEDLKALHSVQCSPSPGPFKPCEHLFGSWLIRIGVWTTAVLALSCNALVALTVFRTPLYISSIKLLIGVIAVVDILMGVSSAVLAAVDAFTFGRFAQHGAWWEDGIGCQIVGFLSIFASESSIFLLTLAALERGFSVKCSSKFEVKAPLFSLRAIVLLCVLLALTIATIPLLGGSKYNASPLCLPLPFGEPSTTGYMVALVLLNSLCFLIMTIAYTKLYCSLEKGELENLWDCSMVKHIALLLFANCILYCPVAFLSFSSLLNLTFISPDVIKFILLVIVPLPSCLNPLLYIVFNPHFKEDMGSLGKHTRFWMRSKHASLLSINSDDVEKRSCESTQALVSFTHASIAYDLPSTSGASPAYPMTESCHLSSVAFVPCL

[5] = biological target: T1, human LGR5-eGFP transgene; test: western blot of lysates of HEK293T cells expressing mLGR5, hLGR5 or cynoLGR5 transgenes, probed with hybridoma clone 4
murine LGR5 transgene [6] = biological target: T3, murine LGR5 transgene; test: as above

B1: hybridoma clone 12 (antibody, V domains shown)
VH: EVQLQQSGPELVKPGASVKISCKASGYTFTDYYMNWVKQSHGKSLEWIGDINPNNGGTIYNQKFKGKATLTVDKSSSTAYMELRSLTSEDSAVYYCASGYLFDYWGPGTTLTVSS
VL: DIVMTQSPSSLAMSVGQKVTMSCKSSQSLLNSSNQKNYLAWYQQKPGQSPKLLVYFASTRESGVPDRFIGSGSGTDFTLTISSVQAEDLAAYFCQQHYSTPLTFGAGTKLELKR
notes: Murine antibody; also called antibody 12
binding result [1]: binds

B2: α-LGR5 variant 4 (antibody, human IgG1, kappa, V domains shown)
VH: QVQLVQSGAEVKKPGASVKVSCKASGYTFTNYWMQWVRQAPGQGLEWIGEIDPSDSYTNYNQKFQGRVTLTVDTSTSTAYMELSSLRSEDTAVYYCARSLSGYVDYWGQGTTVTVSS
VL: EIVMTQSPATLSLSPGERATLSCRASQDISNRLNWYQQKPGQAVRLLISYRSRRHTGIPARFSGSGSGTDYTLTISSLEPEDFAVYYCQQGNSLPPTFGGGTKLEIKR
notes: Humanized antibody; also called α-LGR5v4; clone 2.4
binding result [2]: binds

Next, values leading:

binding result [3]: binds
binding result (murine LGR5 transgene [4]): no binding
B3: α-LGR5 clone 1 (antibody, mouse IgG1, kappa, V domains shown)
VH: QVQLQQPGAELVKPGASVKLSCKASGYTFTSYWMQWVKQRPGQGLEWIGEIDPSDYYTNYNQKFKGKATLTVDTSSSTAYMQLSSLTSEDSAVYYCARSLSGYVDYWGQGTTLTVSS
VL: DIQMTQSTSSLSASLGDRVTINCRASQDIRNRLNWYQQKPDGTVKLLISYRSRLQSGVPSRFSGSGSGTEYSLTISNLEQEDIATYFCQQGNTLPPTFGGGTKLEVRR
notes: Murine monoclonal antibody from hybridoma; also called hybridoma clone 1; antibody 1

binding result [5]: binds
binding result (murine LGR5 transgene [6]): no binding
B4: α-LGR5 clone 4 (antibody, mouse IgG2b, kappa, V domains shown)
VH: QVQLQQPGAELVKPGASVKLSCKASGYTFTDYWMQWVKQRPGQGLEWIGEIDPSDSYTNYNQKFQGKATLTVDTSSSTAYIQLSSLTSDDSAVYYCARSLSGSVDYWGQGTTLTVSS
VL: DIQMTQTTSSLSASLGDRVTISCRASQDISNRLNWYQQKPDGTVKLLISYRSRLQSGVPSRFSGSGSGTDYSLTITNLEQEDIATYFCQQGNTLPPTFGGGTKLEVRR
notes: Murine monoclonal antibody from hybridoma; also called hybridoma clone 4; antibody 4
